Consider 1 molecule from paper PMC8352894, “A KLK4 proteinase substrate capture approach to antagonize PAR1” (Scientific Reports, 2021).

Primed or numbered codes have the meaning given here. The star is where a group is joined. Biotin = O=C1N[C@H]2[C@H](CS[C@H]2CCCCC(=O)*)N1; FITC′ = not defined here

In one experiment the target is T1, KLK4_(S207A) (human, UniProt Q9Y5K2 31-254, S207A).
T1 construct: Kallikrein-related peptidase 4 (KLK4), human, UniProtKB Q9Y5K2; peptidase domain left after thermolysin removed the pro-peptide S27CSQ30 (begins at residue 31); S207 is Ser195 in chymotrypsin numbering; also called KLK_(S207); not shown: FLAG, N-terminal, cleaved
Put plainly: SPR; ProteOn XPR36; biotinylated PAR1 peptide immobilised on an NLC chip via NeutrAvidin-biotin (2600 RU); KLK4 variants flowed over in PBST at 30 µL/min for 818 s, dissociation 30 min (166 min for KLK4 S207A,L185D); 25 °C; empty channel subtracted; 1:1 Langmuir kinetic model. Conditions: both partners purified.

For a further experiment, the target named is T2, KLK4_(S207A,L185D) (human, UniProt Q9Y5K2 31-254, S207A | L185D).
T2 construct: Kallikrein-related peptidase 4 (KLK4), human, UniProtKB Q9Y5K2; peptidase domain left after thermolysin removed the pro-peptide S27CSQ30 (begins at residue 31); L185D chosen by in-silico saturation mutagenesis; also called KLK4_(L185D,S207A); KLK_(S207,L185D); not shown: FLAG, N-terminal, cleaved
The experiment is described as above. Conditions: both partners purified.

T1 sequence (Q9Y5K2 31-254 S207A): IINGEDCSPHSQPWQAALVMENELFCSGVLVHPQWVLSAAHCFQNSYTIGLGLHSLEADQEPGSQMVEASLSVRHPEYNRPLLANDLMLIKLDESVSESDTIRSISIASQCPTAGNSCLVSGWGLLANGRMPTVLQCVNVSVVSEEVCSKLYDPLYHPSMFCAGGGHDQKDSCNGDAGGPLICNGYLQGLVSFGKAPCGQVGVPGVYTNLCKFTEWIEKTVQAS
T2 sequence (Q9Y5K2 31-254 L185D/S207A): as the sequence (Q9Y5K2 31-254 S207A) above, with L155D counted along it

B1: biotinylated PAR1 peptide (biotin-31SKATNATLDPRSFLLRNPNDKYEPFWED58-FITC) (peptide)
peptide: Biotin-SKATNATLDPRSFLLRNPNDKYEPFWED-{FITC′}
notes: also called PAR1 extracellular peptide; source: synthetic peptide, bought: Peptron, Daejeon, Korea (>95%)
Usually Kd stands for the equilibrium constant for the complex coming apart. Lower therefore signals higher affinity. A word on the koff: it is a measure of how fast the partners let go of each other. By kon is commonly meant a measure of how fast the partners come together. Read a low kon as slow association. In the experiment with KLK4_(S207A), B1 had a Kd of 1120 nM, a koff of 0.000391 s⁻¹ and a kon of 349 M⁻¹ s⁻¹. In the experiment with KLK4_(S207A,L185D), the Kd was found to be 55.5 nM, the koff is 3.17e-06 s⁻¹ and the kon stood at 57 M⁻¹ s⁻¹.
